Experimental data published in paper PMC11635053, “Development of a homotrimeric PSMA radioligand based on the NOTI chelating platform” (EJNMMI Radiopharmacy and Chemistry, 2024).

Assays:
[1] = format: in vitro ADME; details: 2 h
Experimental: 100 μL of the radiolabeling solution of each ^68Ga-labeled tracer were added to preheated (37 °C) 1000 μL human serum (male, AB, Sigma Aldrich, USA) in triplicates and incubated at 37 °C. At 1 and 2 h, 100 µL aliquots were taken, mixed with 100 µL ice-cold acetonitrile, and centrifuged at 4 G for 5 min at 4 °C. The corresponding filtrates were kept on ice until HPLC analysis. The supernatants were then analyzed by radio-RP-HPLC and fractions of intact compounds were calculated from the HPLC chromatograms. (gradient 4,Gamma-ray detector: 100–900 keV, injection volume: 20 μl). tR ([^68Ga]Ga-7) = 12.1 min, tR ([^68Ga]Ga-8) = 14.4 min, tR ([^68Ga]Ga-9) = 25.2 min.

PSMA = target: T1, PSMA (Homo sapiens, UniProt Q04609); assay: Competitive binding assay in LNCaP cells with [177Lu]Lu-PSMA-617 as radioligand; details: LNCaP cells, radioligand [177Lu]Lu-PSMA-617, 2 h at r.t.; read-out: IC50 (half maximum competitive inhibitory concentration)
T1 construct: host or cells: LNCaP
T1 sequence (Q04609 whole entry): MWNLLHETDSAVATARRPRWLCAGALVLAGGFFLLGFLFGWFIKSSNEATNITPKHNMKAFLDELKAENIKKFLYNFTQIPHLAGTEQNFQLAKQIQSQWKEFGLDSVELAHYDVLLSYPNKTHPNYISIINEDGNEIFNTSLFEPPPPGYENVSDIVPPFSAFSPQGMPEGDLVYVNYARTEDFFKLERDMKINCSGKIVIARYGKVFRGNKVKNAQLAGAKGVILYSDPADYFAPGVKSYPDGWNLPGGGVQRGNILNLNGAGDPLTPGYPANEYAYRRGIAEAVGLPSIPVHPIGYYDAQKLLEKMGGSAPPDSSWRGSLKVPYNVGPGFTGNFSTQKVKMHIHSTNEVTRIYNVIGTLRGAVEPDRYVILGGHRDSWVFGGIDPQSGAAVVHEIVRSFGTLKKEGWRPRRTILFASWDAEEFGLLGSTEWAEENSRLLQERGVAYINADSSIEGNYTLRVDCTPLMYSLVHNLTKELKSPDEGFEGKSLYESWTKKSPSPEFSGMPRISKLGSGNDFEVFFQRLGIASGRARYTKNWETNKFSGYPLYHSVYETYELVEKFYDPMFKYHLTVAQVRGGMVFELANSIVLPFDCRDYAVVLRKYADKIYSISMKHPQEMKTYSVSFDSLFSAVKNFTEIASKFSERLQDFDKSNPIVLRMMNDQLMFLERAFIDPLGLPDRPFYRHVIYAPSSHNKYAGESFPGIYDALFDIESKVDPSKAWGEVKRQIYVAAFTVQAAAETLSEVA
Experimental: In order to establish a structure–activity relationship, the binding affinity of the metal-free and ^natGa-complexes of the conjugates 7, 8, and 9 were determined in the PSMA-positive human prostate cancer cell line LNCaP by a competitive binding assay as previously reported using [^177Lu]Lu-PSMA-617 as the radioligand (Stemler et al. [2021]). The conjugate Glu-CO-Lys-Ahx-HBED-CC (PSMA-11) was included as the control.
The competitive binding assay was carried out using a MultiScreen®HTS Vacuum Manifold system (Merck, Germany) with 96-well filter plates. Serial dilutions of the metal-free conjugates and corresponding ^natGa complexes were prepared to obtain 7 final concentrations ranging from 0 to 1000 nM for each compound. PSMA-11 was also tested as control. Experiments were performed twice in triplicate for each compound. Freshly prepared ^177Lu-labeled PSMA-617 was used as the radioligand. A volume of 1 μL of [^177Lu]Lu-PSMA-617 stock solution (2.83 μM) was added into each tube of the dilution series (radioligand concentration 3.14 nM). For the experiment, 10^5 LNCaP cells were seeded into each well. The final volume of each well was 150 μL (100 μL cells in medium + 50 μL inhibitor in PBS). The experiment was incubated for 2 h at r.t. in a plate shaker. Then, the supernatants were removed by vacuum. Wells were furthermore washed out with ice-cold PBS (3 × 200 μL, pH 7.4). The filters were punched into tubes for the subsequent quantification of the activity in a Gamma-counter. A nonlinear regression algorithm was applied by the software GraphPad Prism to determine the specific inhibitory concentrations of 50% for the tested radiotracers.

[2] = tested on: patient with metastatic prostate cancer; assay: Clinical PET/CT imaging; details: human, in vivo
Experimental: PET/CT was performed approximately 1, 2, and 3 h after intravenous injection of 107 MBq of [^68Ga]Ga-9 and 1 h after injection of 113 MBq [^68Ga]Ga-PSMA-11 in a patient with metastatic prostate cancer. Whole body imaging extending from vertex to mid-femur was performed in 3D-ToF mode on a Biograph mCT 40 scanner (Siemens Medical Solutions, Knoxville, TN, USA) with an extended field of view of 21.4 cm. PET acquisition time was 3 min bed position^−1. Low-dose CT acquisition was performed for attenuation correction and anatomical localization using an X-ray tube voltage of 120 kV and a modulation of the tube current (maximal tube current: 30 mA; CARE Dose 4D software Siemens Healthineers, Erlangen, Germany) followed by reconstruction with a soft tissue reconstruction kernel (Bf37) to a slice thickness of 5 mm (increment 2–4 mm). PET emission data were additionally corrected for decay, randoms and scatter and reconstructed applying an iterative 3D ordered subset expectation maximization algorithm (3 iterations; 21 subsets) withGaussian filtering to transaxial resolution of 5 mm at full width at half maximum. The matrix size was 200 × 200 mm and the reconstructed pixel size was 5.0 mm.

In the case of `O=C(O)CC[C@H](NC(=O)N[C@@H](CCCCNC(=O)[C@H](Cc1ccc2ccccc2c1)NC(=O)[C@H]1CC[C@H](CNC(=O)CCCCn2ccnc2CN2CCN(Cc3nccn3CCCCC(=O)NC[C@H]3CC[C@H](C(=O)N[C@@H](Cc4ccc5ccccc5c4)C(=O)NCCCC[C@H](NC(=O)N[C@@H](CCC(=O)O)C(=O)O)C(=O)O)CC3)CCN(Cc3nccn3CCCCC(=O)NC[C@H]3CC[C@H](C(=O)N[C@@H](Cc4ccc5ccccc5c4)C(=O)NCCCC[C@H](NC(=O)N[C@@H](CCC(=O)O)C(=O)O)C(=O)O)CC3)CC2)CC1)C(=O)O)C(=O)O` [^nat/68Ga-9, metal not drawn], the “Metabolic stability in human serum” value [1] is reported as “no significant degradation”, the IC50 (PSMA) is reported as 4.8 nM and the “SUVpeak in the parotid gland” value [2] is reported as 26.7. The “SUVpeak in the submandibular gland” value [2] was 23.5, the SUVpeak kidneys [2] was 33.1 and the “SUVpeak, first target lesion” value [2] was 23.7. For the same compound, the “SUVpeak, second target lesion” value [2] was 12.8 and the “SUVpeak, third target lesion” value [2] was 10.3.
